# In paper PMC9482650, “Quantitative fragmentomics allow affinity mapping of interactomes” (Nature Communications, 2022):
# B1: DGKH, Q86XP1 (peptide)
# chain: LGRSTPQSEV
# B2: HPV35-E6_-2P, P27228 (peptide)
# chain: SKPTRRETEV
# How the values were obtained:
# Assay in all cases: holdup assay
# Parameters in all cases: key: below the threshold = too weak to quantify, mostly under pKd 3.1 to 4
# Inadl_8, Q8NI35 = molecular target: Inadl_8, Q8NI35
# SHANK1, Q9Y566 = molecular target: T1, SHANK1, Q9Y566
# T1 sequence (Q9Y566 658-767, limits assumed, looked up): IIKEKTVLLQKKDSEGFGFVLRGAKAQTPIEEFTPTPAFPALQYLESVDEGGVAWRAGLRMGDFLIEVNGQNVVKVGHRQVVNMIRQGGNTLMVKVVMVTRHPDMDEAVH
# FRMPD2_2, Q68DX3 = molecular target: FRMPD2_2, Q68DX3
# FRMPD2_2, Q68DX3, sequence (Q68DX3 944-1038): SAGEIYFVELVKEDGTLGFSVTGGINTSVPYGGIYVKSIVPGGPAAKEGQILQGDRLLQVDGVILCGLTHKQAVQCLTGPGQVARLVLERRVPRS
# DLG4_3, P78352 = molecular target: DLG4_3, P78352
# DLG4_3, P78352, sequence (P78352 306-403): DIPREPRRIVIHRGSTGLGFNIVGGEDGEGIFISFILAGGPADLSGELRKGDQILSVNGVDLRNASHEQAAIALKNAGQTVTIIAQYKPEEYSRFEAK
# MPP6, Q9NZW5 = molecular target: T2, MPP6, Q9NZW5
# T2 sequence (Q9NZW5 125-219, limits assumed, looked up): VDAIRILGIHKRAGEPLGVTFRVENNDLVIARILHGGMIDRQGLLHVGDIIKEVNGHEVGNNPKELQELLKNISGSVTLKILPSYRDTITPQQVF
# NHERF2_2, Q15599 = molecular target: NHERF2_2, Q15599
# NHERF2_2, Q15599, sequence (Q15599 142-238): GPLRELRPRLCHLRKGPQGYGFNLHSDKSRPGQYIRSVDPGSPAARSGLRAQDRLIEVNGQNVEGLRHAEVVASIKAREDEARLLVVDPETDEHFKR
# PDZRN4_1, Q6ZMN7 = molecular target: PDZRN4_1, Q6ZMN7
# PDZRN4_1, Q6ZMN7, sequence (Q6ZMN7 213-318): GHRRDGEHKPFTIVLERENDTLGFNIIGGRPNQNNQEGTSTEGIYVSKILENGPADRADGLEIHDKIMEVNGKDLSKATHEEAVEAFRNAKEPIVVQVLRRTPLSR
# MAST1, Q9Y2H9 = molecular target: MAST1, Q9Y2H9
# MAST1, Q9Y2H9, sequence (Q9Y2H9 962-1065): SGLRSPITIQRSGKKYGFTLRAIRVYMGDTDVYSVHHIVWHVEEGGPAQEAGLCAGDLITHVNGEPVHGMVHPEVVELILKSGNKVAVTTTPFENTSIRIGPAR
# MAGI1_2, Q96QZ7 = molecular target: MAGI1_2, Q96QZ7
# MAGI1_2, Q96QZ7, sequence (Q96QZ7 456-580): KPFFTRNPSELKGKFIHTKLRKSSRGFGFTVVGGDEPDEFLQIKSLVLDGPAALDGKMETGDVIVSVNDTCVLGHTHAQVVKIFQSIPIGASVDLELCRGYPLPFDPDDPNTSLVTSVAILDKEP
# DFNB31_3, Q9P202 = molecular target: T3, DFNB31_3, Q9P202
# T3 sequence (Q9P202 811-907, limits assumed, looked up): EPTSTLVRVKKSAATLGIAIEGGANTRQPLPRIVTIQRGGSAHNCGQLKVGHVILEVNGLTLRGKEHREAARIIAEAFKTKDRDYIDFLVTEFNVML
# GRIP1_7, Q9Y3R0 = molecular target: T4, GRIP1_7, Q9Y3R0
# T4 sequence (Q9Y3R0 999-1096, limits assumed, looked up): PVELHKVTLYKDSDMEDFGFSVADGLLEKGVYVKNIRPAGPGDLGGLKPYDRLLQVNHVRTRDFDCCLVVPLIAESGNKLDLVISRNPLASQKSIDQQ
# DFNB31_2, Q9P202 = molecular target: T5, DFNB31_2, Q9P202
# T5 sequence (Q9P202 274-371, limits assumed, looked up): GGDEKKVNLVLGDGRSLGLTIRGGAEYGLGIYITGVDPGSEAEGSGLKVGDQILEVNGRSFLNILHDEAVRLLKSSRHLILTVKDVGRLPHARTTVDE
# GRID2IP_1, A4D2P6 = molecular target: GRID2IP_1, A4D2P6
# GRID2IP_1, A4D2P6, sequence (A4D2P6 1-87): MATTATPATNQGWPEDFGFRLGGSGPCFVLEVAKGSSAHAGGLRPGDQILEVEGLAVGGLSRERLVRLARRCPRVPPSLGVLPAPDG
# APBA1_1, Q02410 = molecular target: T6, APBA1_1, Q02410
# T6 sequence (Q02410 651-752, limits assumed, looked up): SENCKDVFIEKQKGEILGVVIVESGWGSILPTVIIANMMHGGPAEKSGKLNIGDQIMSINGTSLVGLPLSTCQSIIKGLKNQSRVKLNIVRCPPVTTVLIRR
# CASK, O14936 = molecular target: CASK, O14936
# CASK, O14936, sequence (O14936 487-570): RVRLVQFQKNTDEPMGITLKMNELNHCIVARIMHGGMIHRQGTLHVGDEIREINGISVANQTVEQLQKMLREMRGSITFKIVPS
# MPDZ_12, O75970 = molecular target: T7, MPDZ_12, O75970
# T7 sequence (O75970 1857-1958, limits assumed, looked up): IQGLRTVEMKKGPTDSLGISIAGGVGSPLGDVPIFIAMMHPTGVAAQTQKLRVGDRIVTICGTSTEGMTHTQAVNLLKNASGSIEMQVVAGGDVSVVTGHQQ
# GOPC, Q9HD26 = molecular target: GOPC, Q9HD26
# PTPN13_1, Q12923 = molecular target: T8, PTPN13_1, Q12923
# T8 sequence (Q12923 1088-1188, limits assumed, looked up): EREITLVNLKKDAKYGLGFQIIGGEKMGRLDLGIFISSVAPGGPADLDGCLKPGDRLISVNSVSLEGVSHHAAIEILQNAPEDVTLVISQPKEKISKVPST
# GRIP1_3, Q9Y3R0 = molecular target: T9, GRIP1_3, Q9Y3R0
# T9 sequence (Q9Y3R0 247-346, limits assumed, looked up): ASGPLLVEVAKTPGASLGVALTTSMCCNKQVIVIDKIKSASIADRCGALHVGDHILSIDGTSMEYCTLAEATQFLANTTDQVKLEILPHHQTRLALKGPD
# PDZD7_3, Q9H5P4 = molecular target: T10, PDZD7_3, Q9H5P4
# T10 sequence (Q9H5P4 857-944, limits assumed, looked up): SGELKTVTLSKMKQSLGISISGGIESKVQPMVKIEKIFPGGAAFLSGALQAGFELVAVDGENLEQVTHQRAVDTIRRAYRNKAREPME
# TJP1_3, Q07157 = molecular target: TJP1_3, Q07157
# TJP1_3, Q07157, sequence (Q07157 416-512): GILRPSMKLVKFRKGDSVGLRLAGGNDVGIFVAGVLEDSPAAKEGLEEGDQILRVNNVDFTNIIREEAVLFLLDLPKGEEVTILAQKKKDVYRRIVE
# MAGI1_1, Q96QZ7 = molecular target: MAGI1_1, Q96QZ7
# MAGI1_1, Q96QZ7, sequence (Q96QZ7 1-106): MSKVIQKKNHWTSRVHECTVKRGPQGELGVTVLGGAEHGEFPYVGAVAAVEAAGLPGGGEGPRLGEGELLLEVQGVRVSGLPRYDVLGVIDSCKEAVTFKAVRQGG
# GRIP2_3, Q9C0E4 = molecular target: GRIP2_3, Q9C0E4
# GRIP2_3, Q9C0E4, sequence (Q9C0E4 238-339): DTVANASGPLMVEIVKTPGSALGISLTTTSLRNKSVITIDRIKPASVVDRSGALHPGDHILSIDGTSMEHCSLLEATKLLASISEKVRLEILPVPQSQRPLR
# APBA2_2, Q99767 = molecular target: T11, APBA2_2, Q99767
# T11 sequence (Q99767 654-744, limits assumed, looked up): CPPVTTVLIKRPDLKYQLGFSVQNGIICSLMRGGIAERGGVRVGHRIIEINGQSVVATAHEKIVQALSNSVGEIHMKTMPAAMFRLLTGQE
# DLG4_2, P78352 = molecular target: DLG4_2, P78352
# DLG4_2, P78352, sequence (P78352 155-259): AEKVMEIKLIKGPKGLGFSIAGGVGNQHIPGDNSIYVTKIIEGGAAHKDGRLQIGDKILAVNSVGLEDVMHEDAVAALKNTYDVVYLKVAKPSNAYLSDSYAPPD
# SYNJ2BP, P57105 = molecular target: T12, SYNJ2BP, P57105
# T12 sequence (P57105 8-110, limits assumed, looked up): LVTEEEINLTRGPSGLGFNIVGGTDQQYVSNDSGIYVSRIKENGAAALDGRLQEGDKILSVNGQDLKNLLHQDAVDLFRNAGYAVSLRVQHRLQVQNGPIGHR
# [1] = plain residues with an end cap or a label only (N-terminal biotin on a linker: ado-ado)
# [2] = modified: phospho on T at position -2 from the C-terminal residue
# Inadl_8, Q8NI35, sequence (Q8NI35 1425-1530): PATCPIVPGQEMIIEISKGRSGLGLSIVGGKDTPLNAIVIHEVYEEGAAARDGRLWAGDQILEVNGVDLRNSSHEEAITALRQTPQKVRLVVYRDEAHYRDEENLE
binder,measurement,setting,value
B1,pKd,"Inadl_8, Q8NI35; [1]",3.98
same,pKd,"SHANK1, Q9Y566; [1]",below the threshold
same,pKd,"FRMPD2_2, Q68DX3; [1]",below the threshold
same,pKd,"DLG4_3, P78352; [1]",below the threshold
same,pKd,"MPP6, Q9NZW5; [1]",3.71
same,pKd,"NHERF2_2, Q15599; [1]",below the threshold
same,pKd,"PDZRN4_1, Q6ZMN7; [1]",below the threshold
same,pKd,"MAST1, Q9Y2H9; [1]",4.19
same,pKd,"MAGI1_2, Q96QZ7; [1]",below the threshold
same,pKd,"DFNB31_3, Q9P202; [1]",below the threshold
same,pKd,"GRIP1_7, Q9Y3R0; [1]",below the threshold
same,pKd,"DFNB31_2, Q9P202; [1]",below the threshold
same,pKd,"GRID2IP_1, A4D2P6; [1]",below the threshold
same,pKd,"APBA1_1, Q02410; [1]",below the threshold
same,pKd,"CASK, O14936; [1]",below the threshold
same,pKd,"MPDZ_12, O75970; [1]",below the threshold
same,pKd,"GOPC, Q9HD26; [1]",3.87
same,pKd,"PTPN13_1, Q12923; [1]",below the threshold
same,pKd,"GRIP1_3, Q9Y3R0; [1]",below the threshold
same,pKd,"PDZD7_3, Q9H5P4; [1]",4.4
same,pKd,"TJP1_3, Q07157; [1]",below the threshold
same,pKd,"MAGI1_1, Q96QZ7; [1]",below the threshold
same,pKd,"GRIP2_3, Q9C0E4; [1]",below the threshold
same,pKd,"APBA2_2, Q99767; [1]",below the threshold
same,pKd,"DLG4_2, P78352; [1]",3.92
same,pKd,"SYNJ2BP, P57105; [1]",4.49
B2,pKd,"Inadl_8, Q8NI35; [2]",below the threshold
same,pKd,"SHANK1, Q9Y566; [2]",below the threshold
same,pKd,"FRMPD2_2, Q68DX3; [2]",below the threshold
same,pKd,"DLG4_3, P78352; [2]",below the threshold
same,pKd,"MPP6, Q9NZW5; [2]",3.78
same,pKd,"NHERF2_2, Q15599; [2]",below the threshold
same,pKd,"PDZRN4_1, Q6ZMN7; [2]",below the threshold
same,pKd,"MAST1, Q9Y2H9; [2]",below the threshold
same,pKd,"MAGI1_2, Q96QZ7; [2]",below the threshold
same,pKd,"DFNB31_3, Q9P202; [2]",3.95
same,pKd,"GRIP1_7, Q9Y3R0; [2]",below the threshold
same,pKd,"DFNB31_2, Q9P202; [2]",below the threshold
same,pKd,"GRID2IP_1, A4D2P6; [2]",below the threshold
same,pKd,"APBA1_1, Q02410; [2]",below the threshold
same,pKd,"CASK, O14936; [2]",below the threshold
same,pKd,"MPDZ_12, O75970; [2]",below the threshold
same,pKd,"GOPC, Q9HD26; [2]",below the threshold
same,pKd,"PTPN13_1, Q12923; [2]",below the threshold
same,pKd,"GRIP1_3, Q9Y3R0; [2]",below the threshold
same,pKd,"PDZD7_3, Q9H5P4; [2]",3.61
same,pKd,"TJP1_3, Q07157; [2]",below the threshold
same,pKd,"MAGI1_1, Q96QZ7; [2]",below the threshold
same,pKd,"GRIP2_3, Q9C0E4; [2]",below the threshold
same,pKd,"APBA2_2, Q99767; [2]",below the threshold
same,pKd,"DLG4_2, P78352; [2]",3.56
same,pKd,"SYNJ2BP, P57105; [2]",below the threshold
